Results: PMC8750359

Experiments:
[1] = immunoblot of total NKCC2 ± ManIA co-expression, HEK cells; conditions: glycan lost; control: WT NKCC2
[2] = immunoblot of NKCC2 ± ManIA co-expression, OKP cells; conditions: glycan changed form; control: untreated cells

B1: NKCC2: N442Q/N452Q (protein)
parent chain: MSVSIPSNSVPSSASRFQVHVINEGHGSAAAVGDSADPPHYEETSFGDEAQNRLRISFRPGNQECYDNFLQTGETAKTDTTFHAYDSHTNTYYLQTFGHNTMDAVPKIEYYRNTGSVSGPKVNRPSLLEIHEQLAKNVTVAPGSADRVANGDGMPGDEQAENKEEDMTGVVKFGWVKGVLVRCMLNIWGVMLFIRLSWIVGEAGIGLGVLIILLSTMVTSITGLSTSAIATNGFVRGGGAYYLISRSLGPEFGGSIGLIFAFANAVAVAMYVVGFAETVVDLLKESDSMMVDPTNDIRIIGSITVVILLGISVAGMEWEAKAQVILLVILLIAIANFFIGTVIPSNNEKKSRGFFNYQASIFAENFGPSFTKGEGFFSVFAIFFPAATGILAGANISGDLEDPQDAIPRGTMLAIFITTVAYIGVAICVAACVVRDATGSMNDTIVSGMNCNGSAACGLGYDFSRCQHEPCQYGLMNNFQVMSMVSGFGPLITAGIFSATLSSALASLVSAPKVFQALCKDNIFKGLQFFAKGYGKNNEPLRGYFLTFVIAMAFILIAELNVIAPIISNFFLASYALINFSCFHASYAKSPGWRPAYGIYNMWVSLFGAILCCAVMFVINWWAAVITYVIELFLYIYVTYKKPDVNWGSSTQALSYVSALDNALELTTVEDHVKNFRPQCIVLTGGPMTRPALLDITHAFTKNSGLCICCEVFVGPRKLCVKEMNSGMAKKQAWLIKNKIKAFYAAVAADCFRDGVRSLLQASGLGRMKPNTLVIGYKKNWRKAPLSELENYVGIIHDAFDFEIGVVIVRISQGFDISPVLQVQDELEKLEQERLALEAAIKDNECEEGKGGIRGLFKKAGKLNITKPAPKKDGNISSIQSMHVGEFNQKLVEASAQFKKKQGKGTIDVWWLFDDGGLTLLIPYILTLRKKWKDCKLRIYVGGKITRIEEEKISMASLLSKFRIKFADIHIIGDINIKPNKESWKVFEEMIEPYRLHESHKDLTTAEKLKRESPWKITDAELEAVKEKSYRQVRLNELLQEHSRAANLIVLSLPVARKGSISDLLYMAWLEILTKNLPPVLLVRGNHKNVLTFYS
For B1, the “other: ManIA-induced down-regulation of NKCC2 protein” value [1] was “decreases”.

B2: NKCC2: kifunensine 25 µM, 6 h (protein)
parent chain: MSVSIPSNSVPSSASRFQVHVINEGHGSAAAVGDSADPPHYEETSFGDEAQNRLRISFRPGNQECYDNFLQTGETAKTDTTFHAYDSHTNTYYLQTFGHNTMDAVPKIEYYRNTGSVSGPKVNRPSLLEIHEQLAKNVTVAPGSADRVANGDGMPGDEQAENKEEDMTGVVKFGWVKGVLVRCMLNIWGVMLFIRLSWIVGEAGIGLGVLIILLSTMVTSITGLSTSAIATNGFVRGGGAYYLISRSLGPEFGGSIGLIFAFANAVAVAMYVVGFAETVVDLLKESDSMMVDPTNDIRIIGSITVVILLGISVAGMEWEAKAQVILLVILLIAIANFFIGTVIPSNNEKKSRGFFNYQASIFAENFGPSFTKGEGFFSVFAIFFPAATGILAGANISGDLEDPQDAIPRGTMLAIFITTVAYIGVAICVAACVVRDATGSMNDTIVSGMNCNGSAACGLGYDFSRCQHEPCQYGLMNNFQVMSMVSGFGPLITAGIFSATLSSALASLVSAPKVFQALCKDNIFKGLQFFAKGYGKNNEPLRGYFLTFVIAMAFILIAELNVIAPIISNFFLASYALINFSCFHASYAKSPGWRPAYGIYNMWVSLFGAILCCAVMFVINWWAAVITYVIELFLYIYVTYKKPDVNWGSSTQALSYVSALDNALELTTVEDHVKNFRPQCIVLTGGPMTRPALLDITHAFTKNSGLCICCEVFVGPRKLCVKEMNSGMAKKQAWLIKNKIKAFYAAVAADCFRDGVRSLLQASGLGRMKPNTLVIGYKKNWRKAPLSELENYVGIIHDAFDFEIGVVIVRISQGFDISPVLQVQDELEKLEQERLALEAAIKDNECEEGKGGIRGLFKKAGKLNITKPAPKKDGNISSIQSMHVGEFNQKLVEASAQFKKKQGKGTIDVWWLFDDGGLTLLIPYILTLRKKWKDCKLRIYVGGKITRIEEEKISMASLLSKFRIKFADIHIIGDINIKPNKESWKVFEEMIEPYRLHESHKDLTTAEKLKRESPWKITDAELEAVKEKSYRQVRLNELLQEHSRAANLIVLSLPVARKGSISDLLYMAWLEILTKNLPPVLLVRGNHKNVLTFYS
With B2 the “other: ManIA-induced down-regulation of NKCC2 protein” value [2] was “decreases”.
